Measured values as given in publication doi:10.1101/2024.07.01.601590.

Target: Fluorescently labelled Asgard ESCRT-IIIB (Heimdallarchaeota archaeon AB_125), full length (Heimdallarchaeota archaeon AB_125)
Assay: TIRF microscopy on supported lipid bilayers

| time to reach plateau [s] | Substance |
| --- | --- |
| > 1000 | Fluorescently labelled Asgard ESCRT-IIIB (Heimdallarchaeota archaeon AB_125), full length (natural protein) |
| 160 | Fluorescently labelled Asgard ESCRT-IIIA (Heimdallarchaeota archaeon AB_125), full length (natural protein) |
